Measured values reported in US20240116985A1 (published 2024).
Starred links: 1 amine or outer side, 2 acyl side, 3 side chain; linkers in the order of their positions; H or OH if unused. Positions of bridges follow the written chain, without caps; N, C: chain ends. Non-standard residues stand in square brackets, D forms with d. Primed or numbered codes have the meaning given here. *: point of attachment. PyrS2(3) = (S)-3-amino-1-((pent-4-en-1-yloxy)carbonyl)pyrrolidine-3-carboxylic acid, stapling residue, C=CCCCOC(=O)N1CC[C@@](N[*:1])(C(=O)[*:2])C1; PyrS2″ = (S)-3-amino-1-((pent-4-en-1-yloxy)carbonyl)pyrrolidine-3-carboxylic acid (stapling residue), C=CCCCOC(=O)N1CC[C@@](N[*:1])(C(=O)[*:2])C1; B5(23) = 2-amino-2-(pent-4-en-1-yl)hept-6-enoic acid (2,2-bis(4-pentenyl)glycine), stitching residue, C=CCCCC(CCCC=C)(N[*:1])C(=O)[*:2]; B5(4) = 2,2-bis(4-pentenyl)glycine = 2-amino-2-(pent-4-en-1-yl)hept-6-enoic acid (stitching residue), C=CCCCC(CCCC=C)(N[*:1])C(=O)[*:2]; PyrS2 = (S)-3-amino-1-((pent-4-en-1-yloxy)carbonyl)pyrrolidine-3-carboxylic acid, C=CCCCOC(=O)N1CC[C@@](N[*:1])(C(=O)[*:2])C1; HypEs5 = (2R,4S)-4-(pent-4-enoyloxy)pyrrolidine-2-carboxylic acid, C=CCCC(=O)O[C@H]1C[C@H](C(=O)[*:2])N([*:1])C1; GA = (S)-2-amino-3-((carboxymethyl)amino)propanoic acid, O=C([C@H](CNCC(=O)[*:3])N[*:1])[*:2]; Phe(4-tetrazol-5-yl) = N[C@@H](Cc1ccc(-c2nnn[nH]2)cc1)C(=O)O; Phe(2-Cl) = N[C@@H](Cc1ccccc1Cl)C(=O)O; Bta = N[C@@H](Cc1csc2ccccc12)C(=O)O; αAllylPro = C=CC[C@@]1(C(=O)O)CCCN1; tBuAla = CC(C)(C)C[C@H](N)C(=O)O; 3Thi = N[C@@H](Cc1ccsc1)C(=O)O; Pfb = not defined here; Aib = CC(C)(N)C(=O)O; Ms = CS(=O)(=O)*

T1: B-cat-Halo (UniProt P35222 1-781)
T1 sequence (looked up): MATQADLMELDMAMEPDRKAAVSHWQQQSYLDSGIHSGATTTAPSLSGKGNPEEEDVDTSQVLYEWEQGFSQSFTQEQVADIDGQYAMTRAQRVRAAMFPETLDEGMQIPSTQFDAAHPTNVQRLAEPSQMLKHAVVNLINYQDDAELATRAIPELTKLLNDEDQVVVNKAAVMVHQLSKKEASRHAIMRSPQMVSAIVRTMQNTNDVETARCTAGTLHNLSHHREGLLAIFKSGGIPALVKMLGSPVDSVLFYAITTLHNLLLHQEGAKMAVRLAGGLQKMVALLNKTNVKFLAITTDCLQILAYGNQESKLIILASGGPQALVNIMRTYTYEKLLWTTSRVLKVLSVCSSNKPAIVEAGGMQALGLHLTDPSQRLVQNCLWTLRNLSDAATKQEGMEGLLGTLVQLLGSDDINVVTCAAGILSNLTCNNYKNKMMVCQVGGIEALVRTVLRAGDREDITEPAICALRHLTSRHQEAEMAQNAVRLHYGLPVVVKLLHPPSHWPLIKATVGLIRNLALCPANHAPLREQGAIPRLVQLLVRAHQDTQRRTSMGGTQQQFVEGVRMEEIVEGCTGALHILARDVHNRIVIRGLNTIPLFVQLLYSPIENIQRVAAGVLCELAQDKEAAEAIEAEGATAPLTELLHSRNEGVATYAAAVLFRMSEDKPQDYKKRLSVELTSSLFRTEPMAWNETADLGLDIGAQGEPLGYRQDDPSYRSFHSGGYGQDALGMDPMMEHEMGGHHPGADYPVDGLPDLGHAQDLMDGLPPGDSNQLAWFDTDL

T2: B-cat-Halo (UniProt P35222 1-781)
T2 sequence (looked up): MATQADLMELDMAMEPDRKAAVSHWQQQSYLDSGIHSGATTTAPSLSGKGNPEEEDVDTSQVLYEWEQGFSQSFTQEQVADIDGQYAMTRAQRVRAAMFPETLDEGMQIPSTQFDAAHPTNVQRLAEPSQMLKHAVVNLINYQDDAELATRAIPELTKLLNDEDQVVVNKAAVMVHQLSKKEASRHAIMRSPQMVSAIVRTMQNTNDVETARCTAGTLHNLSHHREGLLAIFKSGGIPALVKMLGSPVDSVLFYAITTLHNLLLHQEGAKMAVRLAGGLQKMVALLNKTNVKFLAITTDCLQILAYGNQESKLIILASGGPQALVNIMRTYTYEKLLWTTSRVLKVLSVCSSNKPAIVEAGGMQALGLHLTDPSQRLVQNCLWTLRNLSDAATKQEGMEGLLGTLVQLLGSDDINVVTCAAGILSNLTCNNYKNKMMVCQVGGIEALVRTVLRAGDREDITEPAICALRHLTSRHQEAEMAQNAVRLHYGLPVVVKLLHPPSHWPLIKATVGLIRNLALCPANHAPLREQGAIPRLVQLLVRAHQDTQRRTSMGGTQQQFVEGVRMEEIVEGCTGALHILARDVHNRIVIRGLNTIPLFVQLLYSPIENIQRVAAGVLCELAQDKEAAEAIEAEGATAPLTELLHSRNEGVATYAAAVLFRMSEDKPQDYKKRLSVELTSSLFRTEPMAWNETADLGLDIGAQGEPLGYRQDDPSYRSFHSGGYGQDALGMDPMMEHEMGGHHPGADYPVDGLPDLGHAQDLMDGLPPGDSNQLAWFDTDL


biological target: T1, B-cat-Halo; assay: cell-based or functional assay

NanoBRET Abs IC50	Binder
> 20 µM	Ac-[αAllylPro]D[tBuAla][B5(23)]NQAAFN[PyrS2][3Thi][Bta]Q-NH2 (staple 1-4, 4-11; also: earlier-eluting HPLC staple isomer) [I-1566]
> 20 µM	Ac-[αAllylPro]D[tBuAla][B5(23)]D[GA]AAFN[PyrS2][Phe(2-Cl)][Bta]Q-NH2 (staple 1-4, 4-11) [I-1572]
> 20 µM	Ac-[αAllylPro]D[tBuAla][B5(23)]D[3TzF]AAFN[PyrS2(3)][3Thi][Bta]Q-NH2 (staple 1-4, 4-11) [I-1578]
> 20 µM	Ac-[αAllylPro]DA[B5(23)]NNAAFN[PyrS2][3Thi][Bta]Q-NH2 (staple 1-4, 4-11) [I-1556]
11.7 µM	Ac-[αAllylPro]D[tBuAla][B5(23)]D[GA](Pfb)AAFN[PyrS2][Phe(2-Cl)][Bta]Q-NH2 (staple 1-4, 4-11; reading uncertain; also: printed as Ac-PL3-Asp-Npg-B5-Asp-[Pfb]GA-Ala-Ala-Phe-Asn-PyrS2-2C1F-BztA-Gln-NH2) [I-1571]
> 20 µM	Ac-[αAllylPro]D[tBuAla][B5(23)]NQAAFN[PyrS2][3Thi][Bta]Q-NH2 (staple 1-4, 4-11; not fully specified; printed as Ac-PL3-Asp-Npg-B5-Asn-Gln-Ala-Ala-Phe-Asn-PyrS2-3Thi-BztA-Gln-NH2) [I-1567]
> 20 µM	Ac-[αAllylPro]D[tBuAla][B5(23)]D[Phe(4-tetrazol-5-yl)]AAFN[PyrS2(3)][3Thi][Bta]Q-NH2 (staple 1-4, 4-11) [I-1579]
> 20 µM	Ac-[αAllylPro]D[tBuAla][B5(23)]NNAAFL[PyrS2][3Thi][Bta]Q-NH2 (staple 1-4, 4-11) [I-1557]
> 20 µM	Ac-[αAllylPro]D[tBuAla][B5(23)]NTAAFN[PyrS2][3Thi][Bta]Q-NH2 (staple 1-4, 4-11; not fully specified; printed as Ac-PL3-Asp-Npg-B5-Asn-Thr-Ala-Ala-Phe-Asn-PyrS2-3Thi-BztA-Gln-NH2) [I-1565]
> 20 µM	Ms-[HypEs5]D[tBuAla][B5(23)]DDAAFN[PyrS2][3Thi][Bta]Q-NH2 (staple 1-4, 4-11; not fully specified; printed as MeSO2-HypEs5-Asp-Npg-B5-Asp-Asp-Ala-Ala-Phe-Asn-PyrS2-3Thi-BztA-Gln-NH2) [I-1574]
> 20 µM	Ac-[αAllylPro]D[tBuAla][B5(23)]NTAAFN[PyrS2][3Thi][Bta]Q-NH2 (staple 1-4, 4-11; also: earlier-eluting HPLC staple isomer) [I-1564]

biological target: T2, B-cat-Halo; assay: cell-based or functional assay

NanoBRET Abs IC50	Binder
28.8 µM	Ac-[αAllylPro]D[tBuAla][B5(4)]DDA[Aib]FL[PyrS2″][3Thi][Bta]Q-NH2 (staple 1-4, 4-11) [I-1178]
4.3 µM	Ac-[αAllylPro]D[tBuAla][B5(4)]DD[Aib]AFL[PyrS2″][3Thi][Bta]Q-NH2 (staple 1-4, 4-11) [I-1177]
